Values quoted from earlier work in article PMC7619008.

Biological target: substance P (Rattus norvegicus) (UniProt P06767)
Chain of UniProt P06767 (P06767 whole entry, looked up): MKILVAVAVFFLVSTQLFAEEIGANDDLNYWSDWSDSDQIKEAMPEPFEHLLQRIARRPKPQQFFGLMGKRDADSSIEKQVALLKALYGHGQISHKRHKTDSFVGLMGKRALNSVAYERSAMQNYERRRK

Substance: NK1 receptor (from UniProt P14600)
- Kd: 3 nM
